US20090118184A1 (UNIVERSITY OF ROCHESTER, published 2009)

What was measured:
Assay in all cases: cell-based or functional assay
[1] = biological target: T1, factor VIIIa A1/A3C1C2 dimer, E1829A (human, UniProt P00451 20-391; P00451 1709-2351)
T1 sequence 1: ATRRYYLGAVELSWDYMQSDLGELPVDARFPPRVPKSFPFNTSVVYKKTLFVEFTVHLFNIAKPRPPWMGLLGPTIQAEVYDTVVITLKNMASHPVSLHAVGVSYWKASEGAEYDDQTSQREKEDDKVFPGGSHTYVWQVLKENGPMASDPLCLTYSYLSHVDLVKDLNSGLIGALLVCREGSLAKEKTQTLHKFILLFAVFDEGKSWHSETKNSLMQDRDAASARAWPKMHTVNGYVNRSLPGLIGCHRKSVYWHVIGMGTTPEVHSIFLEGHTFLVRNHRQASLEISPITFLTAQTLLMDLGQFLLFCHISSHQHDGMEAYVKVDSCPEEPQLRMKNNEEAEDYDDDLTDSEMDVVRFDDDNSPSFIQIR
T1 sequence 2: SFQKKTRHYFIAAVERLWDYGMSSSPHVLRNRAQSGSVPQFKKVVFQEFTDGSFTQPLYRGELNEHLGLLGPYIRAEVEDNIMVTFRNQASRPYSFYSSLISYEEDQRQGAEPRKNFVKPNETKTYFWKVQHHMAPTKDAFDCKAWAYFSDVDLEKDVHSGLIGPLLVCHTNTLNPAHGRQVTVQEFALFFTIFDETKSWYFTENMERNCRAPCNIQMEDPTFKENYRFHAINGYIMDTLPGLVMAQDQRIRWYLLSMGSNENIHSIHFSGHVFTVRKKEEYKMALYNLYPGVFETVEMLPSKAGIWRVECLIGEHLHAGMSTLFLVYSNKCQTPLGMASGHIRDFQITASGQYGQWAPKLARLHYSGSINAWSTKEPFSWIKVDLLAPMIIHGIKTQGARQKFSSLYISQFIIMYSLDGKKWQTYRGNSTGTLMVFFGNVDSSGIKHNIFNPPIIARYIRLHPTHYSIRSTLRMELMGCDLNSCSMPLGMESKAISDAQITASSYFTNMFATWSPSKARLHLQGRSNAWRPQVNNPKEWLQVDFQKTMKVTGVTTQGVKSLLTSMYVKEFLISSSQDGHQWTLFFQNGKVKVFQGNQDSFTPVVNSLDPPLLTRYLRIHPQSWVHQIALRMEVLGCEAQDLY

[2] = biological target: T2, factor VIIIa A1/A3C1C2 dimer, R282A (human, UniProt P00451 20-391; P00451 1709-2351)
T2 chain 1: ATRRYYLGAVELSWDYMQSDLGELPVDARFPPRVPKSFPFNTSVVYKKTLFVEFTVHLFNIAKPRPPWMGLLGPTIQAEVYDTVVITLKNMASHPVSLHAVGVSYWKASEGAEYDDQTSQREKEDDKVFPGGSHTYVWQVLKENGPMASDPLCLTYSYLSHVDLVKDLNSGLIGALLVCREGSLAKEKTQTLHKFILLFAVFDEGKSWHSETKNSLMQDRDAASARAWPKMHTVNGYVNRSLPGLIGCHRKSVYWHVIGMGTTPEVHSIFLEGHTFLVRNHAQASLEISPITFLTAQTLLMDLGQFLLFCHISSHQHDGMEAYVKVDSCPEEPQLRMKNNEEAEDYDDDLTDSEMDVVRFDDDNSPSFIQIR
T2 chain 2: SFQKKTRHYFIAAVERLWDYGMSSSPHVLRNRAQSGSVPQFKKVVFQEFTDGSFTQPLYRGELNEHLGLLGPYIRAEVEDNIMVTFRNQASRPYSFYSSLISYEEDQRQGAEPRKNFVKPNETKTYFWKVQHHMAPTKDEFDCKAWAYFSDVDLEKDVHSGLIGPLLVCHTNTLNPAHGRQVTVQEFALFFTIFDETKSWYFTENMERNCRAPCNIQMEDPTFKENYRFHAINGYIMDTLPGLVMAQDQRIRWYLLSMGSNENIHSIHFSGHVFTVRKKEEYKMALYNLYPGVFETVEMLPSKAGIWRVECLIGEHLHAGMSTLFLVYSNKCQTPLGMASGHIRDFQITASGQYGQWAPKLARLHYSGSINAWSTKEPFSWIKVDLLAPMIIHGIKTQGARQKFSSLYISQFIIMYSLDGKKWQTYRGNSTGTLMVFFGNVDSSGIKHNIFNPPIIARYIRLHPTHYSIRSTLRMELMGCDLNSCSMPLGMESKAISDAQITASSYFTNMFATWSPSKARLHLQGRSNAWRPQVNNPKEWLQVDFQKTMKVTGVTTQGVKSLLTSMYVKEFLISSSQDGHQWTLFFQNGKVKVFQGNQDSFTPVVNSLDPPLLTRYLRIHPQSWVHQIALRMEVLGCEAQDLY

[3] = biological target: T3, factor VIIIa A1/A3C1C2 dimer, S1949A (human, UniProt P00451 20-391; P00451 1709-2351)
T3 sequence 1: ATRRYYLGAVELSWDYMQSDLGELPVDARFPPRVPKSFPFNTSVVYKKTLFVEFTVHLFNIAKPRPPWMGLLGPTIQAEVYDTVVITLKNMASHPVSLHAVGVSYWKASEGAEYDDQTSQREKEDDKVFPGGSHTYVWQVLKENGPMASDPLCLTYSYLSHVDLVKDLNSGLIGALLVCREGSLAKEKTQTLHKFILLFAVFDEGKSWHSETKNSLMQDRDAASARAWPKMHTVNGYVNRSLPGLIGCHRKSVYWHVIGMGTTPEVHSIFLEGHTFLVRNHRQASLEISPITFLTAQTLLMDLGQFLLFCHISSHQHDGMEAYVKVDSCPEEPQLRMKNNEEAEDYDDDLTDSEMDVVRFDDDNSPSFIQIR
T3 sequence 2: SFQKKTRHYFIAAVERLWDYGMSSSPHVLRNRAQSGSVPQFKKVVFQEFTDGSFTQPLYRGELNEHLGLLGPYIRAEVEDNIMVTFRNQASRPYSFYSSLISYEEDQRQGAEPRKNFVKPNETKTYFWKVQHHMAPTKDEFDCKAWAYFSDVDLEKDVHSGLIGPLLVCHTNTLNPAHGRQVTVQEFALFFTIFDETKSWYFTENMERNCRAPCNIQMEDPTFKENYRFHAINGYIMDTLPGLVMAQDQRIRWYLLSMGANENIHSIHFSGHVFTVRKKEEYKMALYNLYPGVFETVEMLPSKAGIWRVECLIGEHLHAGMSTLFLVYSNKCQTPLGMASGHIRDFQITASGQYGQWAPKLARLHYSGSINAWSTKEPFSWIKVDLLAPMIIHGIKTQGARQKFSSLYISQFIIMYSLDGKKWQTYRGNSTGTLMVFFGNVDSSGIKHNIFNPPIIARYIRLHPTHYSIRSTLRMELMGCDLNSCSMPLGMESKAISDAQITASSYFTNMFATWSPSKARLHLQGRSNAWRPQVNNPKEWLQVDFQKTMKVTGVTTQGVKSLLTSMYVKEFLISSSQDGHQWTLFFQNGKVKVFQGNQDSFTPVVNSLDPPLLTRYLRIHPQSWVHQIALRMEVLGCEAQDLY

- rate of factor VIIIa decay compared with WT, factor IXa present [1]: 5 fold
- Factor VIIIa decay rate relative to wild type, FIXa (+) [2]: 41.7 relative to wild type
- Factor VIIIa decay rate relative to wild type, FIXa (-) [2]: 10.7 relative to wild type
- Factor VIIIa decay rate, FIXa (+) [2]: 0.471 min⁻¹
- Factor VIIIa decay rate, FIXa (-) [2]: 0.674 min⁻¹
- Factor VIIIa decay rate relative to wild type, FIXa (+) [3]: 1.14 relative to wild type
- Factor VIIIa decay rate, FIXa (+) [3]: 0.0129 min⁻¹
B1: factor VIIIa A2 subunit, wild type (other)
chain: SVAKKHPKTWVHYIAAEEEDWDYAPLVLAPDDRSYKSQYLNNGPQRIGRKYKKVRFMAYTDETFKTREAIQHESGILGPLLYGEVGDTLLIIFKNQASRPYNIYPHGITDVRPLYSRRLPKGVKHLKDFPILPGEIFKYKWTVTVEDGPTKSDPRCLTRYYSSFVNMERDLASGLIGPLLICYKESVDQRGNQIMSDKRNVILFSVFDENRSWYLTENIQRFLPNPAGVQLEDPEFQASNIMHSINGYVFDSLQLSVCLHEVAYWYILSIGAQTDFLSVFFSGYTFKHKMVYEDTLTLFPFSGETVFMSMENPGLWILGCHNSDFRNRGMTALLKVSSCDKNTGDYYEDSYEDISAYLLSKNNAIEPR
